From the supplement of paper PMC10065799, “High-throughput profiling of sequence recognition by tyrosine kinases and SH2 domains using bacterial peptide display” (eLife, 2023)

Assays:
AncSZ = test: phosphorylation enrichment, bacterial display (enrichment ratio); higher = better substrate or ligand; peptides without Tyr show the background
EPHB1 = EPHB1 (UniProt P54762); test: as above
EPHB2 = EPHB2 (UniProt P29323); test: as above
FGFR1 = FGFR1 (UniProt P11362); test: as above
FGFR3 = FGFR3 (UniProt P22607); test: as above
Fer (mouse) = test: as above
Fes = Fes (UniProt P07332); test: as above
Fyn = Fyn (UniProt P06241); test: as above
Hck = Hck (UniProt P08631); test: as above
Jak2 = Jak2 (UniProt O60674); test: as above
MERTK = MERTK (UniProt Q12866); test: as above
c-Abl (mouse) = test: as above
c-Src = test: as above
Grb2 SH2 = Grb2 SH2 (UniProt P62993); test: SH2 binding enrichment of the phosphorylated peptide, bacterial display (enrichment ratio); higher = better substrate or ligand; peptides without Tyr show the background
SHP2-C SH2 = test: as above
c-Src SH2 = test: as above
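Throughout, for SH2 binding enrichment of the phosphorylated peptide, bacterial display: peptide library displayed on the E. coli surface as eCPX fusions, selected cells deep-sequenced, score is each peptide's frequency after selection divided by its frequency in the input.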
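Throughout, for phosphorylation enrichment, bacterial display: 11-residue human phosphosite peptides and single-mutation variants displayed on the E. coli surface, counted by deep sequencing, each peptide's frequency after selection divided by its frequency in the unselected input library; frequency after pTyr selection over input frequency; kinase dosed for 20-30% of maximal phosphorylation in three min.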

Sequence of Grb2 SH2 (P62993 whole entry, looked up): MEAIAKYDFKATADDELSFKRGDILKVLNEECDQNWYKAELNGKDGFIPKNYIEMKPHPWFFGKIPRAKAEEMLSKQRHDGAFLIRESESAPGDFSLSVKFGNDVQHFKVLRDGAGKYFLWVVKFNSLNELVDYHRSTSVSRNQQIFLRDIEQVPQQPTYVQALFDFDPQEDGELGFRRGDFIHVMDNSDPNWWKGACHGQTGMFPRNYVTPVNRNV
Sequence of EPHB1 (P54762 whole entry, looked up): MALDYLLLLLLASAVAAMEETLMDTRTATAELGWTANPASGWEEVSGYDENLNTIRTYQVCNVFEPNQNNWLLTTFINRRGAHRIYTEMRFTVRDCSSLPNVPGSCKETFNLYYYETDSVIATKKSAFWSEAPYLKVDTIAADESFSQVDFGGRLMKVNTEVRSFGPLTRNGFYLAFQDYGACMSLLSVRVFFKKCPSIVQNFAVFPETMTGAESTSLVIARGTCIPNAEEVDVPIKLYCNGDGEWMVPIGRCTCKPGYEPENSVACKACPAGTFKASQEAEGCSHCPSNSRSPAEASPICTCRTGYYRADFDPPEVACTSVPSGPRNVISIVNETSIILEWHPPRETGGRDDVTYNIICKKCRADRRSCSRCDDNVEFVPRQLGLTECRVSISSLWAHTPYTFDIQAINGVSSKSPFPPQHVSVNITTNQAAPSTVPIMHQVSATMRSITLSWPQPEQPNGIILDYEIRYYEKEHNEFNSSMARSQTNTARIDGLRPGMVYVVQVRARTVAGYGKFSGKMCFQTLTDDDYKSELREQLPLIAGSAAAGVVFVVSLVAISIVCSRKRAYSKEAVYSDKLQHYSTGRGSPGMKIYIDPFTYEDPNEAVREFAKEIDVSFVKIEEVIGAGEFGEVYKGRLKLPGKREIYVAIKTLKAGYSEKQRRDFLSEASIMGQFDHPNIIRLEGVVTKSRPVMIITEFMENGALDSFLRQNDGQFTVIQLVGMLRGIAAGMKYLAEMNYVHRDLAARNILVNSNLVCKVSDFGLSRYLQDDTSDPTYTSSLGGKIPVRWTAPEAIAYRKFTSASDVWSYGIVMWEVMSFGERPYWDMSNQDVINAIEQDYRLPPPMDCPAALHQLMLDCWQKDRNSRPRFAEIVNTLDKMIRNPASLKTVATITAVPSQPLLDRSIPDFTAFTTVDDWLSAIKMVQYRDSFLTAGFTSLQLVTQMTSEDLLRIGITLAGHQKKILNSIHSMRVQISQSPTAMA
Sequence of Hck (P08631 whole entry, looked up): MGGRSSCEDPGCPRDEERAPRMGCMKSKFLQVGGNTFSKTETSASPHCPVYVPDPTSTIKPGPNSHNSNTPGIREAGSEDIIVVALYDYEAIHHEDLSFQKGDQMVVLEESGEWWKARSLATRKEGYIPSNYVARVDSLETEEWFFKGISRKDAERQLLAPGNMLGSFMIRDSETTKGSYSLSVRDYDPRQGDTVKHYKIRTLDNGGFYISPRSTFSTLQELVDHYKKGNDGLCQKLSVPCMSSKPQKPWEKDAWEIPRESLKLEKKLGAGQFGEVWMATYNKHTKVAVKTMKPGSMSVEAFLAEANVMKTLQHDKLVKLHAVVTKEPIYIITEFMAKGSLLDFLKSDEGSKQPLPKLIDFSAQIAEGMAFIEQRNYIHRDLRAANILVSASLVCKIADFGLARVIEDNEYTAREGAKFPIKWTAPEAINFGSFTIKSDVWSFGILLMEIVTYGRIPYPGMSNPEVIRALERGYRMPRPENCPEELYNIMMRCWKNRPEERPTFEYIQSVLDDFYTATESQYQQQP
Sequence of Fyn (P06241 whole entry, looked up): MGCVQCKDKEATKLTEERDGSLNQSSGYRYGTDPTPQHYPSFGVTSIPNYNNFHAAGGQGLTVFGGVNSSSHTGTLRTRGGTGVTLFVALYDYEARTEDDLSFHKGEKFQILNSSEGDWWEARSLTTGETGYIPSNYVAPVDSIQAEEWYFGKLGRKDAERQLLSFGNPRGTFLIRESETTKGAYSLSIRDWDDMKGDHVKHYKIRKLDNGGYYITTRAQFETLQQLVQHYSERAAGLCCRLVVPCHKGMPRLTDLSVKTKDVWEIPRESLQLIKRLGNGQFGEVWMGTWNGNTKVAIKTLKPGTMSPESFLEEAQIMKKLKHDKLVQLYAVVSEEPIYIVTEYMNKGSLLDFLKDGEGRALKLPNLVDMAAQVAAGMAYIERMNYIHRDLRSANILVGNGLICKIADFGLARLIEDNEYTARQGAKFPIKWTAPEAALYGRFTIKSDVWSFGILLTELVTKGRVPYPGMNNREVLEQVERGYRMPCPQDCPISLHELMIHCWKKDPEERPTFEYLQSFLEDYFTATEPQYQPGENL
Sequence of EPHB2 (P29323 whole entry, looked up): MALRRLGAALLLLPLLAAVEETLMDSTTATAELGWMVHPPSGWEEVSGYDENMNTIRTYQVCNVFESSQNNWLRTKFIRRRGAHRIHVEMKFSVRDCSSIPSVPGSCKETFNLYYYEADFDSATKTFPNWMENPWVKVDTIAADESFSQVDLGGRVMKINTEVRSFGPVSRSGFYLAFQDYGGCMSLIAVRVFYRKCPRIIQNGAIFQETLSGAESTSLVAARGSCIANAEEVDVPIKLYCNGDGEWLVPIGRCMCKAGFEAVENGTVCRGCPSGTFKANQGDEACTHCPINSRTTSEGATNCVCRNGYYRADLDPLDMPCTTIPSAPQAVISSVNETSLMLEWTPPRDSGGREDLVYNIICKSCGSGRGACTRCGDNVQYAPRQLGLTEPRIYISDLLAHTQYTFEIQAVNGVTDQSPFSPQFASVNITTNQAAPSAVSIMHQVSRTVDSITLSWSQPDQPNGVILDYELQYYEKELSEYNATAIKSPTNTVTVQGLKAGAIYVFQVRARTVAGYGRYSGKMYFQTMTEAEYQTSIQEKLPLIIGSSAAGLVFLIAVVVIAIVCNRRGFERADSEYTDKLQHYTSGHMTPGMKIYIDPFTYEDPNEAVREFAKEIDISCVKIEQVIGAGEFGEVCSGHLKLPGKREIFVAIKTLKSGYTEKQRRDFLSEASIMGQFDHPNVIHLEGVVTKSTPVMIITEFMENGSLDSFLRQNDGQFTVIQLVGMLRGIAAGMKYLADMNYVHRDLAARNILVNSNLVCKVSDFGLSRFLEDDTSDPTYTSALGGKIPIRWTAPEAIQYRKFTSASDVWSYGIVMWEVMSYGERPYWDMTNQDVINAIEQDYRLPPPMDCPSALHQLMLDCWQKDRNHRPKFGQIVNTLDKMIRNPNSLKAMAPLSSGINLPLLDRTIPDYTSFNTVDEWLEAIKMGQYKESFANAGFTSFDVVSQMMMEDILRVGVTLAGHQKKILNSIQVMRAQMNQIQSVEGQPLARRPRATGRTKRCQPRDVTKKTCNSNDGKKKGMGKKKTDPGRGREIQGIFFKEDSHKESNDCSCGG
Sequence of FGFR3 (P22607 whole entry, looked up): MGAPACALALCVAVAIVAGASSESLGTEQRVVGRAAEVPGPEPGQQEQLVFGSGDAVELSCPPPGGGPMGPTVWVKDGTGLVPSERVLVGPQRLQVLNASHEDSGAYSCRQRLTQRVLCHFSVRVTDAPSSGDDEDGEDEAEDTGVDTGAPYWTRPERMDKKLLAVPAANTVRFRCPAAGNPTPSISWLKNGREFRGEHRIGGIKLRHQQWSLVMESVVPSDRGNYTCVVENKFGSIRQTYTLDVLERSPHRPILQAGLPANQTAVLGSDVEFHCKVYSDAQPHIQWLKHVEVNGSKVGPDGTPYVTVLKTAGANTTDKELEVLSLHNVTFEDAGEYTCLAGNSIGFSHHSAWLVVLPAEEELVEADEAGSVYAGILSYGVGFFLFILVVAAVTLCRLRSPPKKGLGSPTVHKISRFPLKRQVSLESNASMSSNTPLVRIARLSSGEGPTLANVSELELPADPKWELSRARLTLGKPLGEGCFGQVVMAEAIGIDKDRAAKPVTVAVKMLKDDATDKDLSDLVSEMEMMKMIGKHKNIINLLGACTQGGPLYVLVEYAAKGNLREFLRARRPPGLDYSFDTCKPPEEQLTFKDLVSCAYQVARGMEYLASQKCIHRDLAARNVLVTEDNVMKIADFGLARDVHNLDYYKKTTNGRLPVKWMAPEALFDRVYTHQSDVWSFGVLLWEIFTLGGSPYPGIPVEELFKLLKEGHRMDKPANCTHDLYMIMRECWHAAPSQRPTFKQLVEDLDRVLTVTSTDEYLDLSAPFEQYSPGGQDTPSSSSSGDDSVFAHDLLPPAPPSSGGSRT
Sequence of Fes (P07332 whole entry, looked up): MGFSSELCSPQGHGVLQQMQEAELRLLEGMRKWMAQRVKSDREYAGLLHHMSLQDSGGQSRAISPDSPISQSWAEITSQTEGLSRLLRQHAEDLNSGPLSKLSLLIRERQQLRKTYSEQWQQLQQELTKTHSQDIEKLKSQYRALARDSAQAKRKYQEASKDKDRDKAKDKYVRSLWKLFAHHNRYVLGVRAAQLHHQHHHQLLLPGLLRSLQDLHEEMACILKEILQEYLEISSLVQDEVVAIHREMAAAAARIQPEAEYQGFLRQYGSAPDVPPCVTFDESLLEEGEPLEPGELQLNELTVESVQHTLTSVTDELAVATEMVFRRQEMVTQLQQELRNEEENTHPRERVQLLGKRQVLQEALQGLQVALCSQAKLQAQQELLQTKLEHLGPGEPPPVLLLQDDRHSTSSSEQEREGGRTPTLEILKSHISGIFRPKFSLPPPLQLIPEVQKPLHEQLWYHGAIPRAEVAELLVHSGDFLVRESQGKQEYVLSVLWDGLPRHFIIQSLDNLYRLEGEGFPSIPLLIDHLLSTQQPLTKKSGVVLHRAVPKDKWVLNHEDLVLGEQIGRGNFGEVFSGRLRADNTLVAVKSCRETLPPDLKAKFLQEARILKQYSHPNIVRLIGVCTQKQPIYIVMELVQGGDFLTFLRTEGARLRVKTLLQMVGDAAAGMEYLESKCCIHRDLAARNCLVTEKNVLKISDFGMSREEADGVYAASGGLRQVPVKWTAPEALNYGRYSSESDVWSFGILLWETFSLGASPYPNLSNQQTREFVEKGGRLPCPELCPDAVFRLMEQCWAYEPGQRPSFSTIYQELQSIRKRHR

| Sequence | phosphorylation enrichment (AncSZ) | phosphorylation enrichment (EPHB1) | phosphorylation enrichment (EPHB2) | phosphorylation enrichment (FGFR1) | phosphorylation enrichment (FGFR3) | phosphorylation enrichment (Fer (mouse)) | phosphorylation enrichment (Fes) | phosphorylation enrichment (Fyn) | phosphorylation enrichment (Hck) | phosphorylation enrichment (Jak2) | phosphorylation enrichment (MERTK) | phosphorylation enrichment (c-Abl (mouse)) | phosphorylation enrichment (c-Src) | SH2 binding enrichment (Grb2 SH2) | SH2 binding enrichment (SHP2-C SH2) | SH2 binding enrichment (c-Src SH2) |
| --- | --- | --- | --- | --- | --- | --- | --- | --- | --- | --- | --- | --- | --- | --- | --- | --- |
| HVIKLFGACSQ [RET_Y791_Y791F] | 1.52 | 1.01 | 0.995 | 0.709 | 1.26 | 0.763 | 1.75 | 0.816 | 0.855 | 0.994 | 0.719 | 1.1 | 0.519 | 0.938 | 0.979 | 0.667 |
| HYECKYVINAI [MAOA_Y268] | 1.38 | 0.841 | 0.788 | 0.557 | 0.957 | 0.506 | 1.61 | 0.507 | 0.657 | 0.95 | 0.66 | 0.86 | 0.859 | 0.735 | 0.634 | 0.59 |
| ICANKYMVKSC [RPL10_Y75] | 0.719 | 0.476 | 0.445 | 0.385 | 0.514 | 0.464 | 0.815 | 0.406 | 0.424 | 0.735 | 0.409 | 0.524 | 0.44 | 1.09 | 1.12 | 1.13 |
| IDNKMYDPKMN [ENPP1_Y280] | 0.699 | 0.369 | 0.362 | 0.553 | 0.471 | 0.355 | 0.729 | 0.404 | 0.478 | 0.385 | 0.304 | 0.41 | 0.344 | 1.17 | 0.623 | 0.578 |
| IDSTPYRQWFE [RPS8_Y109_YF] | 0.739 | 0.487 | 0.464 | 0.494 | 0.551 | 0.406 | 0.856 | 0.302 | 0.442 | 0.855 | 0.357 | 0.665 | 0.368 | 0.758 | 0.744 | 0.417 |
| IENKLYGTSDP [RET_Y1062_M1064T] | 0.858 | 0.563 | 0.544 | 0.527 | 0.559 | 0.549 | 0.869 | 0.59 | 0.553 | 0.817 | 0.526 | 0.818 | 0.509 | 1.02 | 0.604 | 0.465 |
| IENPQYFSDAC [NTRK1_Y496] | 1.13 | 0.648 | 0.616 | 0.673 | 0.962 | 0.524 | 1.24 | 0.516 | 0.626 | 1.14 | 0.546 | 1.01 | 0.542 | 0.789 | 1.02 | 0.524 |
| IFGVSYGEYRY [CFTR_Y512_D513G] | 0.9 | 0.852 | 0.691 | 0.603 | 0.819 | 0.736 | 1.33 | 7.22 | 4.11 | 0.858 | 0.537 | 0.632 | 5.62 | 1.05 | 1.1 | 0.933 |
| IFKAAYFGVFD [SLC25A4_Y191_R188K_YF] | 1.1 | 0.587 | 0.524 | 0.529 | 0.65 | 0.534 | 1.21 | 0.544 | 0.504 | 1.08 | 0.531 | 0.773 | 0.625 | 1.03 | 0.766 | 1.01 |
